Target: NSUN4 (Homo sapiens, UniProt Q96CB9 26-384)
Assay: EMSA; NSUN4 without MTERF4; protein 0-2.56 uM; EMSA with 40 ng RNA and 0-2.56 uM protein, essentially as in cited ref 15; buffer, salt, pH and temperature not given
Conditions: protein: recombinant; single strand folded, closed by added GGG/CCC

NSUN4, sequence (Q96CB9 26-384): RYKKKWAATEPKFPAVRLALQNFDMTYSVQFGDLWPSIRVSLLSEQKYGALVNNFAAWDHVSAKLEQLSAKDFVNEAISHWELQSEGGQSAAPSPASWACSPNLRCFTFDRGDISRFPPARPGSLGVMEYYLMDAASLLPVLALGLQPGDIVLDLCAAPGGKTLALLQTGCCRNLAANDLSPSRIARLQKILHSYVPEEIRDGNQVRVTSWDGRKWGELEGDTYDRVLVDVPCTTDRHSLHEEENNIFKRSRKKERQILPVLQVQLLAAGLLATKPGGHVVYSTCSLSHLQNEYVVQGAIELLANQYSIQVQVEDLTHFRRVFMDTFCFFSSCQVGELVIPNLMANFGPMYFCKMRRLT

B1: ds12S:878-949 (structured_RNA)
RNA: GGGGUUGAACAGGGCCCUGAAGCGCGUACACACCGCCCGUCACCCUCCUCAAGUAUACUUCAAAGGACAUUUAACCCC
**Q.** Does B1 bind?
**A.** binds
